Reference: US20100158922A1 (NOVIMMUNE S A, published 2010)
Positions count from the first letter of the chain named. Values belong to the binder of their own block, whether it stands above or below them.

Assays:
[1] = molecular target: T1, recombinant human IFNγ (human, UniProt P01579 24-166, limits assumed); experiment: cell-based or functional assay
T1 sequence (looked up): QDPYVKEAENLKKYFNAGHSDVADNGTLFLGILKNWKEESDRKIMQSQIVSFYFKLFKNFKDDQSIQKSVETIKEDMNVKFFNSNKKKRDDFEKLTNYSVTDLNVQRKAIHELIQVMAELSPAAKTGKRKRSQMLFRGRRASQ

[2] = molecular target: T2, recombinant cat IFNγ (cat, UniProt P46402 24-167); experiment: Sandwich ELISA, IFNγ captured with pre-coated NI-0501
T2 construct: also called rcIFNγ
T2 sequence (looked up): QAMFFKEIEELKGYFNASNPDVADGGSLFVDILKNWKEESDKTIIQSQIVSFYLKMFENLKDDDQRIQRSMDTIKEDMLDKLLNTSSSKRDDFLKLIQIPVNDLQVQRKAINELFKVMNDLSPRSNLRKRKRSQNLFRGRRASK
Text: (§1) The IFNγ from each species was detected using a polyclonal antibody specific for the IFNγ in that assay.

[3] = molecular target: T3, recombinant dog IFNγ (dog, UniProt P42161 24-166); experiment: as above
T3 construct: also called rdIFNγ
T3 sequence (looked up): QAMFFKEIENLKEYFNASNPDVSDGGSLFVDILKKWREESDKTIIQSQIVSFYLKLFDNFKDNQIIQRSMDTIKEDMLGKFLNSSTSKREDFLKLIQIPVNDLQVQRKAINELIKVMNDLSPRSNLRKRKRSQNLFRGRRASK
Text: as §1

[4] = molecular target: T4, recombinant cynomolgus IFNγ (cynomolgus monkey, UniProt P63309 24-165); experiment: Binding, cross-reactivity table (Sandwich ELISA)
T4 construct: also called rcyIFNγ
T4 sequence (looked up): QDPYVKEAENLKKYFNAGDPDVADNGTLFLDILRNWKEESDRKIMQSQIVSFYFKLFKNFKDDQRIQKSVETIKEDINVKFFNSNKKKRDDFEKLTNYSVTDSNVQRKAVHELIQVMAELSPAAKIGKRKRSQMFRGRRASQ

[5] = molecular target: T5, native human IFNγ (human, UniProt P01579 24-161, limits assumed); experiment: Binding, cross-reactivity table (Sandwich ELISA)
T5 construct: Native protein in a culture supernatant; also called nhuIFNγ
T5 sequence (looked up): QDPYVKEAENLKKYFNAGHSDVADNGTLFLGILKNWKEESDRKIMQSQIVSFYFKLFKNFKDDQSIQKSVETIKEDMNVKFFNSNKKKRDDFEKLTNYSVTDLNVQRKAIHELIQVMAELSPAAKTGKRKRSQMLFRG

[6] = molecular target: T1, recombinant human IFNγ; experiment: Binding, cross-reactivity table (Sandwich ELISA)
[7] = molecular target: T6, native cynomolgus IFNγ (cynomolgus monkey, UniProt P63309 24-165, limits assumed); experiment: Binding, cross-reactivity table (Sandwich ELISA)
T6 construct: Native protein in a culture supernatant; also called ncyIFNγ
T6 sequence (looked up): T4 sequence (looked up)

B1: AD1.4R4P2_G7 IgG (antibody, V domains shown)
VH: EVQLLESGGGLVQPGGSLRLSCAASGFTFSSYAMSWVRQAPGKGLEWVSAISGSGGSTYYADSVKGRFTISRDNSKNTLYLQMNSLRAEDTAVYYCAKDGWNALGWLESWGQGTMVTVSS
VL: NFMLTQPHAVSESPGKTVTISCTGRNGNIASNYVQWYQQRPDSAPTLIIFEDTQRPSGVPTRLSGSIDTSSNSASLIISSLRTEDEADYYCQSSDSNRVLFGGGTKVTVLG
MHC II Inhibition Cell-Based Assay IC50 [1]: 0.233 nM

B3: AC1.2R2P2_D8 IgG (antibody, V domains shown)
VH: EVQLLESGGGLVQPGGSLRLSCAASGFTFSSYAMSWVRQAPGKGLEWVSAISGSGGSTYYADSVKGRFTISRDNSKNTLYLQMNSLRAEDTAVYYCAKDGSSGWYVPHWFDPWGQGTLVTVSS
VL: NFMLTQPHSVSESPGKTVTISCTRSSGSIVSNYVQWYQQRPGSSPTTVIYEDNQRPSGVPDRFSGSIDSSSNSASLTISGLKTEDEADYYCQSYDSNNFWVFGGGTKLTVLG
MHC II Inhibition Cell-Based Assay IC50 [1]: 0.708 nM

B4: AC1.4R4P2_C10 IgG (antibody, V domains shown)
VH: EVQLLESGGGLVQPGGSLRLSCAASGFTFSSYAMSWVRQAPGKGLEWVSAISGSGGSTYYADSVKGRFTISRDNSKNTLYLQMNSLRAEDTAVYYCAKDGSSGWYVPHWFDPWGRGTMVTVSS
VL: B3 VL with S28T, V30A, S96N, N97S, F99H, L108V
MHC II Inhibition Cell-Based Assay IC50 [1]: 0.203 nM

B7: AD1.3R3P6_F9 IgG (antibody, V domains shown)
VH: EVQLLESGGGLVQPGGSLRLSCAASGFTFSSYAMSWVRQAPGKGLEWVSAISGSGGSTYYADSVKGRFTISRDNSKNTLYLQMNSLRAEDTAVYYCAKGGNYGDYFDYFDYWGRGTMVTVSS
VL: NFMLTQPHSVSESPGKTVTISCTRSSGSIASNYVQWYQQRPGSAPTIVIYEDNQRPSGVPHRFSGSIDSSSNSASLTISGLKTEDEADYYCQSYEGFGGGTKLTVLG
MHC II Inhibition Cell-Based Assay IC50 [1]: 0.185 nM

B8: AD1.4R4P1_B9 IgG (antibody, V domains shown)
VH: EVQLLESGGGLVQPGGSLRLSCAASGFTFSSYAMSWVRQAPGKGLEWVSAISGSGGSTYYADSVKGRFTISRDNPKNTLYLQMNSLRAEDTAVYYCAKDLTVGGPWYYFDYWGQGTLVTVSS
VL: NFMLTQPHSVSESPGKTVTISCTRSSGSIVSNYVQWYQQRPGSAPTTVIFDDDQRPSGVPGRFSGSLDSSSNSASLTISGLQTEDEADYYCQSYDSSNVVFGGGTKVTVLG
MHC II Inhibition Cell-Based Assay IC50 [1]: 0.322 nM

Further lines, results first:

MHC II Inhibition Cell-Based Assay IC50 [1]: 0.041 nM
B2: AC1.2R3P2_A6 IgG (antibody, V domains shown)
VH: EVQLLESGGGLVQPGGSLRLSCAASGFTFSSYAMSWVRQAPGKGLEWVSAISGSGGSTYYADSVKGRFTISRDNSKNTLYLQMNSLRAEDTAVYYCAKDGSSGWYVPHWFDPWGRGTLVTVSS
VL: B3 VL with S44A, Q54R, S73T, K82E, T83A, S96G, N97S, F99R, V101M

MHC II Inhibition Cell-Based Assay IC50 [1]: 1.53 nM
B5: AD1.3R3P5_F8 IgG (antibody, V domains shown)
VH: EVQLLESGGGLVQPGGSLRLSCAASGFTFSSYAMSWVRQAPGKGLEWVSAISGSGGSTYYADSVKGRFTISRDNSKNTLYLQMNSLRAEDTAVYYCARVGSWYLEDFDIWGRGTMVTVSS
VL: NFMLTQPHSVSESPGKTVTISCTRSSGSIASNYVHWYQQRPGSSPTTVIYEDNRRPSGVPARFSGSIDSSSNSASLTISGLETDDEADYYCQSSDTTYHGGVVFGGGTKLTVLG

binding result [2]: no binding
binding result [3]: no binding
binding result [4]: binds
binding result [5]: binds
binding result [6]: binds
binding result [7]: binds
B6: NI-0501 (antibody, V domains shown)
VH: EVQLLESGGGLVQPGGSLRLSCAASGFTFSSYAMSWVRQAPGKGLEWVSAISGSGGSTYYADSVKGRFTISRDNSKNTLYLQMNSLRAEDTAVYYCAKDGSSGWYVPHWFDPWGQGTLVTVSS
VL: NFMLTQPHSVSESPGKTVTISCTRSSGSIASNYVQWYQQRPGSSPTTVIYEDNQRPSGVPDRFSGSIDSSSNSASLTISGLKTEDEADYYCQSYDGSNRWMFGGGTKLTVL
notes: It is the back-mutated version of A6; also called A6 back-mutated to germline; back-mutated A6
